Data reported in patent EP1942187B1.

How the values were obtained:
Test in all cases: cell-based or functional assay
IL10Rb (CRF2-4) (human) = IL10Rb (CRF2-4) (human) (UniProt Q08334)
[1] = target: zcytoR19 and IL10Rb (CRF2-4) coexpressed on BHK cells (human)
human zcytor19 (human) = target: human zcytor19 (human)

IL10Rb (CRF2-4) (human), sequence (Q08334 20-325 limits assumed, form in doubt): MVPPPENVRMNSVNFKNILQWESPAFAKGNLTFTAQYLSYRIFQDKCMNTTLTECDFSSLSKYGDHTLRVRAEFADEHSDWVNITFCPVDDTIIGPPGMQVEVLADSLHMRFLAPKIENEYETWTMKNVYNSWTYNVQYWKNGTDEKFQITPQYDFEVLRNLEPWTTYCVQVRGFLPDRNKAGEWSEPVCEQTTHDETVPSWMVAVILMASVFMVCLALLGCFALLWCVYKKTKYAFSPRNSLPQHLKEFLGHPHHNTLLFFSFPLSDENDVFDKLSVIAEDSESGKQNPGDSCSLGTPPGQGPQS

Substance zcyto20-CEE (ligand) has an Optical Density (570nm), MTT, EMCV-infected HuzcytoR19-overexpressing 293 cells; Zcyto20-CEE 0.5 ng/ml; Anti-IL10Rb 5 ug/ml (IL10Rb (CRF2-4) (human)) of 0.95 OD 570nm, an Optical Density (570nm), MTT, EMCV-infected HuzcytoR19-overexpressing 293 cells; Zcyto20-CEE 0.5 ng/ml; Anti-LeptinR 5 ug/ml (control antibody) (IL10Rb (CRF2-4) (human)) of 0.24 OD 570nm and an Optical Density (570nm), MTT, EMCV-infected wild-type 293 cells; Zcyto20-CEE 200 ng/ml; Anti-IL10Rb 5 ug/ml (IL10Rb (CRF2-4) (human)) of 0.94 OD 570nm. The Optical Density (570nm), MTT, EMCV-infected wild-type 293 cells; Zcyto20-CEE 200 ng/ml; Anti-LeptinR 5 ug/ml (control antibody) (IL10Rb (CRF2-4) (human)) was 0.88 OD 570nm.
With “zcyto21 (from UniProt Q8IU54 20-200) (ligand)” the ISRE-luciferase fold induction; BHK cells transfected with zcytoR19 and IL10Rb (CRF2-4); zcyto21 0.001 ng/ml (fold induction) [1] was 1.3, the ISRE-luciferase fold induction; BHK cells transfected with zcytoR19 and IL10Rb (CRF2-4); zcyto21 0.01 ng/ml (fold induction) [1] was 1.6 and the ISRE-luciferase fold induction; BHK cells transfected with zcytoR19 and IL10Rb (CRF2-4); zcyto21 0.1 ng/ml (fold induction) [1] was 2.2. The ISRE-luciferase fold induction; BHK cells transfected with zcytoR19 and IL10Rb (CRF2-4); zcyto21 1 ng/ml (fold induction) [1] was 2.5, the ISRE-luciferase fold induction; BHK cells transfected with zcytoR19 and IL10Rb (CRF2-4); zcyto21 10 ng/ml (fold induction) [1] was 2.6 and the ISRE-luciferase fold induction; BHK cells transfected with zcytoR19 and IL10Rb (CRF2-4); zcyto21 100 ng/ml (fold induction) [1] was 2.5. The ISRE-luciferase fold induction; BHK cells transfected with zcytoR19 and IL10Rb (CRF2-4); zcyto21 1000 ng/ml (fold induction) [1] was 2.2, the ISRE-luciferase fold induction; wild-type 293 cells; Zcyto21 0.001 ng/ml; + IL10Rb neutralizing antibody (2.5 ug/ml) (fold induction) (IL10Rb (CRF2-4) (human)) was 1.3 and the ISRE-luciferase fold induction; wild-type 293 cells; Zcyto21 0.001 ng/ml; no antibody (fold induction) (IL10Rb (CRF2-4) (human)) was 1.2. It also gave an ISRE-luciferase fold induction; wild-type 293 cells; Zcyto21 0.01 ng/ml; + IL10Rb neutralizing antibody (2.5 ug/ml) (fold induction) (IL10Rb (CRF2-4) (human)) of 1.3, an ISRE-luciferase fold induction; wild-type 293 cells; Zcyto21 0.01 ng/ml; no antibody (fold induction) (IL10Rb (CRF2-4) (human)) of 1.2 and an ISRE-luciferase fold induction; wild-type 293 cells; Zcyto21 0.1 ng/ml; + IL10Rb neutralizing antibody (2.5 ug/ml) (fold induction) (IL10Rb (CRF2-4) (human)) of 1.3. The ISRE-luciferase fold induction; wild-type 293 cells; Zcyto21 0.1 ng/ml; no antibody (fold induction) (IL10Rb (CRF2-4) (human)) was 1.1, the ISRE-luciferase fold induction; wild-type 293 cells; Zcyto21 1 ng/ml; + IL10Rb neutralizing antibody (2.5 ug/ml) (fold induction) (IL10Rb (CRF2-4) (human)) was 1.3 and the ISRE-luciferase fold induction; wild-type 293 cells; Zcyto21 1 ng/ml; no antibody (fold induction) (IL10Rb (CRF2-4) (human)) was 1.5. The ISRE-luciferase fold induction; wild-type 293 cells; Zcyto21 10 ng/ml; + IL10Rb neutralizing antibody (2.5 ug/ml) (fold induction) (IL10Rb (CRF2-4) (human)) was 1.4, the ISRE-luciferase fold induction; wild-type 293 cells; Zcyto21 10 ng/ml; no antibody (fold induction) (IL10Rb (CRF2-4) (human)) was 3.2 and the ISRE-luciferase fold induction; wild-type 293 cells; Zcyto21 100 ng/ml; + IL10Rb neutralizing antibody (2.5 ug/ml) (fold induction) (IL10Rb (CRF2-4) (human)) was 1.8. For the same substance, the ISRE-luciferase fold induction; wild-type 293 cells; Zcyto21 100 ng/ml; no antibody (fold induction) (IL10Rb (CRF2-4) (human)) was 4.1, the ISRE-luciferase fold induction; zcytoR19-overexpressing 293 cells; Zcyto21 0.001 ng/ml; + IL10Rb neutralizing antibody (2.5 ug/ml) (fold induction) (IL10Rb (CRF2-4) (human)) was 1 and the ISRE-luciferase fold induction; zcytoR19-overexpressing 293 cells; Zcyto21 0.001 ng/ml; no antibody (fold induction) (IL10Rb (CRF2-4) (human)) was 1.1. The ISRE-luciferase fold induction; zcytoR19-overexpressing 293 cells; Zcyto21 0.01 ng/ml; + IL10Rb neutralizing antibody (2.5 ug/ml) (fold induction) (IL10Rb (CRF2-4) (human)) was 1.1, the ISRE-luciferase fold induction; zcytoR19-overexpressing 293 cells; Zcyto21 0.01 ng/ml; no antibody (fold induction) (IL10Rb (CRF2-4) (human)) was 3.5 and the ISRE-luciferase fold induction; zcytoR19-overexpressing 293 cells; Zcyto21 0.1 ng/ml; + IL10Rb neutralizing antibody (2.5 ug/ml) (fold induction) (IL10Rb (CRF2-4) (human)) was 1. For the same substance, the ISRE-luciferase fold induction; zcytoR19-overexpressing 293 cells; Zcyto21 0.1 ng/ml; no antibody (fold induction) (IL10Rb (CRF2-4) (human)) was 1.5, the ISRE-luciferase fold induction; zcytoR19-overexpressing 293 cells; Zcyto21 1 ng/ml; + IL10Rb neutralizing antibody (2.5 ug/ml) (fold induction) (IL10Rb (CRF2-4) (human)) was 5.8 and the ISRE-luciferase fold induction; zcytoR19-overexpressing 293 cells; Zcyto21 1 ng/ml; no antibody (fold induction) (IL10Rb (CRF2-4) (human)) was 35. It also gave an ISRE-luciferase fold induction; zcytoR19-overexpressing 293 cells; Zcyto21 10 ng/ml; + IL10Rb neutralizing antibody (2.5 ug/ml) (fold induction) (IL10Rb (CRF2-4) (human)) of 28, an ISRE-luciferase fold induction; zcytoR19-overexpressing 293 cells; Zcyto21 10 ng/ml; no antibody (fold induction) (IL10Rb (CRF2-4) (human)) of 48 and an ISRE-luciferase fold induction; zcytoR19-overexpressing 293 cells; Zcyto21 100 ng/ml; + IL10Rb neutralizing antibody (2.5 ug/ml) (fold induction) (IL10Rb (CRF2-4) (human)) of 31. The ISRE-luciferase fold induction; zcytoR19-overexpressing 293 cells; Zcyto21 100 ng/ml; no antibody (fold induction) (IL10Rb (CRF2-4) (human)) was 45, the ISRE-luciferase fold induction; 293 cells transfected with ISRE-Luc./Zcytor19; Zcyto21 125ng/ml (fold induction) (human zcytor19 (human)) was 108 and the ISRE-luciferase fold induction; BHK cells transfected with zcytoR19 alone; zcyto21 0.001 ng/ml (fold induction) (human zcytor19 (human)) was 1.3. The ISRE-luciferase fold induction; BHK cells transfected with zcytoR19 alone; zcyto21 0.01 ng/ml (fold induction) (human zcytor19 (human)) was 1.4, the ISRE-luciferase fold induction; BHK cells transfected with zcytoR19 alone; zcyto21 0.1 ng/ml (fold induction) (human zcytor19 (human)) was 1.4 and the ISRE-luciferase fold induction; BHK cells transfected with zcytoR19 alone; zcyto21 1 ng/ml (fold induction) (human zcytor19 (human)) was 2. The ISRE-luciferase fold induction; BHK cells transfected with zcytoR19 alone; zcyto21 10 ng/ml (fold induction) (human zcytor19 (human)) was 2.4, the ISRE-luciferase fold induction; BHK cells transfected with zcytoR19 alone; zcyto21 100 ng/ml (fold induction) (human zcytor19 (human)) was 2.6 and the ISRE-luciferase fold induction; BHK cells transfected with zcytoR19 alone; zcyto21 1000 ng/ml (fold induction) (human zcytor19 (human)) was 3.3.
Substance zcyto22 (ligand) has an ISRE-luciferase fold induction; BHK cells transfected with zcytoR19 and IL10Rb (CRF2-4); zcyto22 0.001 ng/ml (fold induction) [1] of 1.3, an ISRE-luciferase fold induction; BHK cells transfected with zcytoR19 and IL10Rb (CRF2-4); zcyto22 0.01 ng/ml (fold induction) [1] of 1.7 and an ISRE-luciferase fold induction; BHK cells transfected with zcytoR19 and IL10Rb (CRF2-4); zcyto22 0.1 ng/ml (fold induction) [1] of 2.4. It also gave an ISRE-luciferase fold induction; BHK cells transfected with zcytoR19 and IL10Rb (CRF2-4); zcyto22 1 ng/ml (fold induction) [1] of 2.7, an ISRE-luciferase fold induction; BHK cells transfected with zcytoR19 and IL10Rb (CRF2-4); zcyto22 10 ng/ml (fold induction) [1] of 2.7 and an ISRE-luciferase fold induction; BHK cells transfected with zcytoR19 and IL10Rb (CRF2-4); zcyto22 100 ng/ml (fold induction) [1] of 2.2. It also gave an ISRE-luciferase fold induction; BHK cells transfected with zcytoR19 and IL10Rb (CRF2-4); zcyto22 1000 ng/ml (fold induction) [1] of 2.2, an ISRE-luciferase fold induction; wild-type 293 cells; Zcyto22 0.01 ng/ml; + IL10Rb neutralizing antibody (8 ug/ml) (fold induction) (IL10Rb (CRF2-4) (human)) of 0.9 and an ISRE-luciferase fold induction; wild-type 293 cells; Zcyto22 0.01 ng/ml; no antibody (fold induction) (IL10Rb (CRF2-4) (human)) of 0.9. For the same substance, the ISRE-luciferase fold induction; wild-type 293 cells; Zcyto22 0.1 ng/ml; + IL10Rb neutralizing antibody (8 ug/ml) (fold induction) (IL10Rb (CRF2-4) (human)) was 0.8, the ISRE-luciferase fold induction; wild-type 293 cells; Zcyto22 0.1 ng/ml; no antibody (fold induction) (IL10Rb (CRF2-4) (human)) was 1.2 and the ISRE-luciferase fold induction; wild-type 293 cells; Zcyto22 1 ng/ml; + IL10Rb neutralizing antibody (8 ug/ml) (fold induction) (IL10Rb (CRF2-4) (human)) was 0.8. It also gave an ISRE-luciferase fold induction; wild-type 293 cells; Zcyto22 1 ng/ml; no antibody (fold induction) (IL10Rb (CRF2-4) (human)) of 1.8, an ISRE-luciferase fold induction; wild-type 293 cells; Zcyto22 10 ng/ml; + IL10Rb neutralizing antibody (8 ug/ml) (fold induction) (IL10Rb (CRF2-4) (human)) of 1 and an ISRE-luciferase fold induction; wild-type 293 cells; Zcyto22 10 ng/ml; no antibody (fold induction) (IL10Rb (CRF2-4) (human)) of 8. The ISRE-luciferase fold induction; wild-type 293 cells; Zcyto22 100 ng/ml; + IL10Rb neutralizing antibody (8 ug/ml) (fold induction) (IL10Rb (CRF2-4) (human)) was 1.2, the ISRE-luciferase fold induction; wild-type 293 cells; Zcyto22 100 ng/ml; no antibody (fold induction) (IL10Rb (CRF2-4) (human)) was 11 and the ISRE-luciferase fold induction; zcytoR19-overexpressing 293 cells; Zcyto22 0.01 ng/ml; + IL10Rb neutralizing antibody (8 ug/ml) (fold induction) (IL10Rb (CRF2-4) (human)) was 1.3. The ISRE-luciferase fold induction; zcytoR19-overexpressing 293 cells; Zcyto22 0.01 ng/ml; no antibody (fold induction) (IL10Rb (CRF2-4) (human)) was 1, the ISRE-luciferase fold induction; zcytoR19-overexpressing 293 cells; Zcyto22 0.1 ng/ml; + IL10Rb neutralizing antibody (8 ug/ml) (fold induction) (IL10Rb (CRF2-4) (human)) was 1.1 and the ISRE-luciferase fold induction; zcytoR19-overexpressing 293 cells; Zcyto22 0.1 ng/ml; no antibody (fold induction) (IL10Rb (CRF2-4) (human)) was 8.4. For the same substance, the ISRE-luciferase fold induction; zcytoR19-overexpressing 293 cells; Zcyto22 1 ng/ml; + IL10Rb neutralizing antibody (8 ug/ml) (fold induction) (IL10Rb (CRF2-4) (human)) was 2.3, the ISRE-luciferase fold induction; zcytoR19-overexpressing 293 cells; Zcyto22 1 ng/ml; no antibody (fold induction) (IL10Rb (CRF2-4) (human)) was 69 and the ISRE-luciferase fold induction; zcytoR19-overexpressing 293 cells; Zcyto22 10 ng/ml; + IL10Rb neutralizing antibody (8 ug/ml) (fold induction) (IL10Rb (CRF2-4) (human)) was 39. The ISRE-luciferase fold induction; zcytoR19-overexpressing 293 cells; Zcyto22 10 ng/ml; no antibody (fold induction) (IL10Rb (CRF2-4) (human)) was 97, the ISRE-luciferase fold induction; zcytoR19-overexpressing 293 cells; Zcyto22 100 ng/ml; + IL10Rb neutralizing antibody (8 ug/ml) (fold induction) (IL10Rb (CRF2-4) (human)) was 76 and the ISRE-luciferase fold induction; zcytoR19-overexpressing 293 cells; Zcyto22 100 ng/ml; no antibody (fold induction) (IL10Rb (CRF2-4) (human)) was 82. It also gave an ISRE-luciferase fold induction; 293 cells transfected with ISRE-Luc./Zcytor19; Zcyto22 125ng/ml (fold induction) (human zcytor19 (human)) of 104, an ISRE-luciferase fold induction; BHK cells transfected with zcytoR19 alone; zcyto22 0.001 ng/ml (fold induction) (human zcytor19 (human)) of 1.2 and an ISRE-luciferase fold induction; BHK cells transfected with zcytoR19 alone; zcyto22 0.01 ng/ml (fold induction) (human zcytor19 (human)) of 1.2. It also gave an ISRE-luciferase fold induction; BHK cells transfected with zcytoR19 alone; zcyto22 0.1 ng/ml (fold induction) (human zcytor19 (human)) of 1.1, an ISRE-luciferase fold induction; BHK cells transfected with zcytoR19 alone; zcyto22 1 ng/ml (fold induction) (human zcytor19 (human)) of 1.5 and an ISRE-luciferase fold induction; BHK cells transfected with zcytoR19 alone; zcyto22 10 ng/ml (fold induction) (human zcytor19 (human)) of 1.9. It also gave an ISRE-luciferase fold induction; BHK cells transfected with zcytoR19 alone; zcyto22 100 ng/ml (fold induction) (human zcytor19 (human)) of 2 and an ISRE-luciferase fold induction; BHK cells transfected with zcytoR19 alone; zcyto22 1000 ng/ml (fold induction) (human zcytor19 (human)) of 1.8.
